3 substances from patent publication EP4556028A1 can be followed below.

The target of this experiment is spike protein of SARS-CoV-2 clinical isolate HH01 (Wuhan-like), on live virus (SARS-CoV-2 (Wuhan-like HH01)) (UniProt P0DTC2). Description: cell-based or functional assay.

As for “virus-binding conjugate P: PLGA-PEG-Mal / PLGA (1:1) particle loaded with LCB1”, the IC50, inhibition of SARS-CoV-2 HH01 replication on Calu-3 cells turned out to be 4.86 µg/mL and the IC90, inhibition of SARS-CoV-2 HH01 replication on Calu-3 cells worked out at 4.99 µg/mL. The substance “recombinant minibinder LCB1 with N- and C-terminal Ser/Gly extensions and C-terminal Cys (designed binder)” yielded an IC50, inhibition of SARS-CoV-2 HH01 replication on Calu-3 cells of 10 to 100 nM. On the same count and under the same terms, next, “virus-binding conjugate S: PLGA-only particle incubated with LCB1 (control, adsorbed minibinder)”: 1 to 10 µg/mL.
